Measured values published in publication PMC8873925.

Key:
Test in all cases: ITC
CSTF2 RRM A93E = biological target: T1, CSTF2 RRM A93E (Homo sapiens, UniProt P33240 1-107, A93E)
T1 sequence: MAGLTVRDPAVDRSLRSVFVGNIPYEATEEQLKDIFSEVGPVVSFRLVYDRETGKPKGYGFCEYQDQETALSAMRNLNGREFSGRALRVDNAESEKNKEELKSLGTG

CSTF2 RRM D90I = biological target: T2, CSTF2 RRM D90I (Homo sapiens, UniProt P33240 1-107, D90I)
T2 sequence: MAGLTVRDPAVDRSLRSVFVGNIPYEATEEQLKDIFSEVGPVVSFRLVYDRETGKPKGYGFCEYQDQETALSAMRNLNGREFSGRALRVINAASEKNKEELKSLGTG

CSTF2 RRM F45A = biological target: T3, CSTF2 RRM F45A (Homo sapiens, UniProt P33240 1-107, F45A)
T3 sequence: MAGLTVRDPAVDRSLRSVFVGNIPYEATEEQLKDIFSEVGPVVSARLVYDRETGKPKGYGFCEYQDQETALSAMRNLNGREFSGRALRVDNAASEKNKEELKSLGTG

[1] = biological target: T4, CSTF2 (CstF-64) RRM wild-type (Homo sapiens, UniProt P33240 1-107)
T4 sequence: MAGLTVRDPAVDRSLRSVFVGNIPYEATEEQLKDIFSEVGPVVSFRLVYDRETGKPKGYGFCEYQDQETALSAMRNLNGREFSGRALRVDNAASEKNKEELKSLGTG

CSTF2 RRM K98E = biological target: T5, CSTF2 RRM K98E (Homo sapiens, UniProt P33240 1-107, K98E)
T5 sequence: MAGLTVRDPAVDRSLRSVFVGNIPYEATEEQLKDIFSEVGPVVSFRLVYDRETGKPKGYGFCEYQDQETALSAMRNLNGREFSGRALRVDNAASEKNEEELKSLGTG

CSTF2 RRM D50A = biological target: T6, CSTF2 RRM D50A (Homo sapiens, UniProt P33240 1-107, D50A)
T6 sequence: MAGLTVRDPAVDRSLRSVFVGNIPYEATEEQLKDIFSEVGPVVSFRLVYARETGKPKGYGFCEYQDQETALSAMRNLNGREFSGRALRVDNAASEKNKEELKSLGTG

CSTF2 RRM K96E = biological target: T7, CSTF2 RRM K96E (Homo sapiens, UniProt P33240 1-107, K96E)
T7 sequence: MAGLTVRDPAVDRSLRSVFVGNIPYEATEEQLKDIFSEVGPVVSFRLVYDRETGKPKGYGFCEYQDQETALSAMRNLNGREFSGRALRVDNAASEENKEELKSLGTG

CSTF2 RRM E26A = biological target: T8, CSTF2 RRM E26A (Homo sapiens, UniProt P33240 1-107, E26A)
T8 sequence: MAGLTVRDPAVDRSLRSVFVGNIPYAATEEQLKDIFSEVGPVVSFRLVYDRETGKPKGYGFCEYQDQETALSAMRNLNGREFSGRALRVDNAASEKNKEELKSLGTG

CSTF2 RRM D90K = biological target: T9, CSTF2 RRM D90K (Homo sapiens, UniProt P33240 1-107, D90K)
T9 sequence: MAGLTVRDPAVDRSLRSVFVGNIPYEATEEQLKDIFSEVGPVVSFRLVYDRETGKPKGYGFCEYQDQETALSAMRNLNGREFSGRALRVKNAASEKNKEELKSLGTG

AUUUUAUGUUUCAGGU (ssRNA) [SVL RNA]
Kd (CSTF2 RRM A93E): 3.88 ± 0.77 µM | Kd (CSTF2 RRM D90I): 1260 ± 330 nM | Kd (CSTF2 RRM F45A): 1010 ± 50 nM | Kd [1]: 1520 ± 170 nM | Kd (CSTF2 RRM K98E): 8.7 ± 0.11 µM | Kd (CSTF2 RRM D50A): 698 ± 60 nM | Kd (CSTF2 RRM K96E): 38.7 ± 4.2 µM | Kd (CSTF2 RRM E26A): 520 ± 10 nM | Kd (CSTF2 RRM D90K): 608 ± 10 nM
